The target in test [1] is GST-FliS (Helicobacter pylori (strain 26695)). Nature of the test: pull-down; competitive: the same experiment as a5, for purified HP1076 added at molar ratios to GST-FliS of 0, 0.5:1, 5:1 and 50:1 in the presence of H. pylori lysate; read-out is the flagellin band.
Test [2] addresses FliS (flagellar export chaperone FliS of Helicobacter pylori), GST tag removed (Helicobacter pylori (strain 26695)). The test is described as follows: MST; labelled FliS or FliS-FlaBc (40 nM) mixed with HP1076 (6.2 μM to 0.189 nM, or 3.83 mM to 117 μM); 20 mM Tris pH 7.5, 150 mM NaCl, 2 mM DTT; 21.5°C.
Test [3] has as its target FliS-FlaBc complex (Helicobacter pylori (strain 26695) | Helicobacter pylori) (UniProt Q07911). The test is described as above.

“And” between values parts separate entries of the source, which are not always exact repeats. Equal entries are not always repeated.

B1: His-HP1076 (natural protein)
chain: MDILKTLQKHLGDVETSDFTTNAIEKSQQIAKFSRDMKNINESVGALQVLQIACKKLFNKSMGLEDKDALQASIIKQELREIVENCQFLASPLFDTQLNIAINDEIFSMIVVNPLDLLENVGEFQAYLEEKLNEIKELLGYLSESLSNPKAFMPSFSNQSLKDLLSDNLRA
As for B1, in test [1], the binding of flagellin (FlaA/FlaB band) to GST-FliS left when saturated by HP1076 (fraction of the binding without HP1076) was 0.2 and 0.25. The Kd (usually the constant that tells how readily two partners part at equilibrium) in test [2] stood at 0.015 µM; in test [3], 1600 µM.
